Data reported in patent publication US7727950.

Key:
[1] = test system: T1, standard peptide substrate MHRQETVDCLK
T1 sequence: MHRQETVDCLK

[2] = test system: T2, generic peptide substrate RARTLSFAEPG
T2 sequence: RARTLSFAEPG

With “alpha-isoform of calmodulin-dependent protein kinase II (CaMKII)” the Km [1] was 60 µM and the Km [2] was 300 µM.
